Measurements reported in patent US20230332166A1, “FORMATE-INDUCIBLE PROMOTERS AND METHODS OF USE THEREOF” (Imperial College Innovations Ltd, priority 2020, published 2023).

B1: Yali0F13937: putative Y. lipolytica FDH gene; promoter region SEQ ID NO: 6 (1 Kb) and 22 (1.5 Kb) (nucleic acid, listed as Yarrowia lipolytica)
DNA: ATGAAGGTCCTTCTTATTCTCTATGATGCCGGCTCTCACGCTAAGGATGAGCCCAAGCTCCTTGGATGCACCGAGAACGAGCTCGGTATCCGAGACTGGCTCGAGTCTCAGGGCCATACTCTCGTTACCACCTCTTCCAAGGATGGCGCCGACTCTGTGCTTGACAAGGAGATTGTTGACGCCGATGTAGTCATCACTACCCCCTTCCACCCTGGCTACATCAACAAGGAGCGAATCGACAAGGCCAAGAAGCTCAAGATCTGCATCACTGCCGGTGTGGGCTCGGACCACGTTGATCTCGATGCTGCCAACGCTCGAGATATCGCTGTTCTGGAAGTCACTGGTTCTAATGTCCAGTCCGTCGCTGAGCATGTTGTCATGACTATGCTCGTTCTGGTCCGAAACTTTGTCCCCGCCCACGAGCAAATCATCTCTGGCGGCTGGGATGTTGCTGCTGTCGCCAAGGACTCCTACGATCTCGAGGGTAAGGTCATCGGTACCGTTGGTGGCGGCCGAATCGGCCAGCGTGTCCTCAAGCGATGCAAGCCCTTCGACCCCATGGAAATGCTCTACTACGACTACCAGCCCATGCCTGCCGACGTCGAAAAGGAGATTGGTTGCCGACGAGTTGAGTCTCTGGAGGAGATGCTCTCTCTGTGTGATGTCGTGACCATCAATTGCCCTCTGCACGCCTCCACCAAGGGCCTCTTCAACAAGGAGCTCATCTCGCACATGAAGAATGGTGCTTGGCTCGTCAACACTGCTCGAGGAGCCATCTGCGTTACCGAGGACATTGTCGAGGCACTCGAGTCCGGCAAGATGCGAGGATACGGTGGTGATGTCTGGTTCCCCCAGCCTGCCCCCAAGGACCATCCCTGGAGAACCATGCGAAACAAGTACGGTGGTGGAAACGCCATGACTCCTCATATCTCTGGCACTTCCATCGATGCCCAGGGCCGATACGCCGAGGGAACAAAGAAGATCCTCGAGGTCTTCTTCTCTGGCAAGCAGGATTACCGACCCCAGGACATTATCTGCATCAACGGTCACTACGGTACCAAGGCTTACGGTGACGACAAGGAGCACAAGGAGCACCAGCTTAAGTAAACATTTTTATAGTAACATCTCATTTTGT
modifications: YALI0F13937g
B2: Yali0E15840: putative Y. lipolytica FDH gene; promoter region SEQ ID NO: 10 (1 Kb) and 26 (1.5 Kb) (nucleic acid, listed as Yarrowia lipolytica)
DNA: ATGAAGGTCCTTCTTGTTCTTTACGATGCTGGCTCTCACGCTGCTGACGAGCCCAAGCTCCTTGGATGCACCGAAAACGAGCTCGGTATCCGAGACTGGCTCGAGTCCCAGGGCCACACGCTTGTCACCACCTCTTCCAAGGATGGCGCCGACTCTGTGCTCGACAAGGAAATTGTTGACGCCGACGTTGTCATCACCACCCCCTTCCACCCCGGCTACATCAACAAGGAGCGAATCGACAAGGCCAAGAAGCTCAAGATCTGCATCACCGCCGGAGTCGGCTCGGACCACGTTGATCTCGATGCTGCCAACGCTCGAGATATCGCTGTTCTGGAGGTCACTGGTTCTAATGTCCAATCCGTCGCTGAGCATGTTGTCATGACTATGCTCGTTCTGGTCCGAAACTTTGTCCCCGCCCACGAGCAGATCATTTCCGGCGGGTGGGACGTTGCGGCGGTCGCCAAGGACTCCTACGATCTAGAGGGTAAGGTCATCGGTACCGTGGGAGGCGGCCGAATCGGTCAGCGTGTCCTCAAGCGATGCAAGCCTTTCGACCCCATGGAAATGCTCTACTACGATTACCAGCCCATGCCTGCCGACGTCGAAGAGGAGATTGGCTGCCGACGAGTCGAGTCGCTCGAGCAAATGCTTTCTCTGTGTGATGTTGTCACTATCAACTGCCCTCTGCACGCCTCCACCAAGGGTCTCTTCAACAAGGAGCTCATCTCCCACATGAAGGATGGAGCCTGGCTCGTCAACACTGCTCGAGGAGCCATCTGCGTCACCGAGGACATTGTCGAGGCCCTAGAGTCCGGCAAAATCCGAGGATACGGAGGAGACGTCTGGTTCCCCCAGCCTGCCCCCAAGGACCACCCCTGGAGAACCATGCGAAACAATTACGGTGGTGGAAACGCCATGACTCCCCACATCTCCGGAACCTCCATTGATGCCCAGGGCCGATACGCTGAGGGTACCAAGAAGATCCTCGAGGTCTTTTTCTCGGGCAAGCAGGATTATCGACCCCAGGATATCATCTGTATCAACGGCCATTATGGTACCAAGGCCTACGGTGACGACAAAGAGCATAAGGAGCATCAGCTCAAGTAA
modifications: YALI0E15840g
B3: Yali0B22506: putative Y. lipolytica FDH gene; promoter region SEQ ID NO: 4 (1 Kb) and 20 (1.5 Kb) (nucleic acid, listed as Yarrowia lipolytica)
DNA: ATGAAGATTCTCCTTATCCTTTACGACGCCGGCTCCCACGCTGCTGACGAACCCAAGCTGCTAGGTTGCACCGAGAACGAGCTCGGCATCCGATCCTGGCTCGAGTCCCAGGGCCATACCCTGGTCACCACCTCTTCCAAGGAGGGTGCTGACTCTGTTCTCGACAAGGAGATTGTTGATGCCGATGTTGTCATCACCACTCCCTTCCACCCCGGCTACATCACCCGAGAGCGAATTGCCAAGGCCAAGAACCTCAAGATCTGTGTCACTGCCGGTGTTGGCTCTGACCACGTTGATCTTGCTGCCGCCAACGAGAGAAACATTGCCGTGCTCGAGGTCACTGGTTCCAACGTGACTTCTGTTGCTGAGCACGTTGTCATGACCATGCTTGTTCTTGTCCGAAACTTCGTGCCTGCCAACGAGCAGGTTCGAGGCGGCGGCTGGGACGTTGCCGGTGTTGCCAAGGATTCCTACGATATTGAGGGTAAGGTCATTGGTACCGTCGGAGTCGGCCGAATCGGCAAGCGAGTGCTCCAGCGACTCAAGCCCTTCGACCCCAAGGAGCTGCTCTACTACGACTATCAGCCTCTGTCTGCTGCCGACGAGAAGGAGATTGGCGCCCGACGAGTTGAGAAGCTCGAGGACATGCTTGCCCAGTGTGATGTTGTCACCATCAACTGCCCCCTGCACGAATCCACCAAGGGTCTCTTTAACAAGGAGCTGCTGTCCCACATGAAGAAGGGCGCCTGGCTCGTCAACACCGCTCGAGGAGCCATCTGTGTAAAGGAGGACGTTGCCGCCGCTCTCAAGTCTGGTCAGCTCCGAGGCTACGGCGGAGATGTCTGGTTCCCCCAGCCTGCCCCTGCTGACCACCCCTGGAGAAAGATGGTCAACAAGTACGGTGCCGGTAACGCCATGACCCCCCACATGTCTGGAACCTCTCTGGACGCCCAGGCCCGATACGCTGCTGGTGTCAAGCAGATTCTCGACGAGTTCTTCTCCGGCCGAGAACAGTACCGACCCCAGGACATTATCTGCTACGGTGGTAACTACGGCACCAAGGCCTACGGAGACGACAAGAAGGTCGTCGACAAGAAGTAATCCGTCCAACGTTCTTCTCAGCGCACAGGTACCTATACTACTGGTAGTATCAGGTTAAACCTCTTTTAGTTTAATGATAAGATAAGATAACATACCGT
modifications: YALI0B22506g
B4: Yali0B19976: putative Y. lipolytica FDH gene; promoter region SEQ ID NO: 9 (1 Kb) and 25 (1.5 Kb) (nucleic acid, listed as Yarrowia lipolytica)
DNA: ATGAAGGTCCTTCTTGTTCTCTACGACGCCGGCTCCCACGCCAAGGATGAGCCCAAGCTACTTGGATGCACTGAAAACGAGCTCGGTATCCGAGACTGGCTCGAGTCCCAGGGCCATACCCTGGTAACTACCTCTTCTAAGGATGGCGCCGACTCCGTTCTCGACAAGGAGATTGTTGATGCCGATGTTGTCATCACTACCCCCTTCCATCCCGGTTACATCAACAAGGAGAGAATTGACAAGGCCAAGAAGCTCAAGATCTGTATCACTGCCGGTGTTGGTTCTGACCATGTCGATCTAGATGCCGCCAACGCCCGAGACATTGCTGTCCTTGAAGTCACTGGCTCCAACGTTCAGTCGGTCGCTGAGCATGTTGTCATGACCATGCTTGTTCTGGTCAGAAACTTCGTCCCTGCTCATGAGCAGATCATTTCTGGTGGCTGGGACGTTGCCGCTGTCGCCAAGGACTCTTACGACCTAGAGGGTAAGGTCATTGGTACAGTTGGAGGTGGGCGAATCGGTCAGCGAGTCCTCAAGCGATGCAAGCCCTTCGACCCCATGGAGATGCTCTACTACGACTACCAGCCCATGCCCGCTGATGTCGAGAAGGAGATTGGCTGTCGACGAGTGGAGTCTCTCGAGGAGATGCTCTCTCTCTGTGACGTTGTCACCATCAACTGTCCTCTGCACGCCTCCACCAAGGGCCTCTTCAACAAGAAGCTCATCTCCCACATGAAGGATGGCGCCTGGCTCGTCAACACCGCTCGAGGAGCTATTTGTGTCACTGAGGACATTGTTGAGGCTCTCGAGTCCGGAAAGATTCGAGGCTACGGTGGTGATGTCTGGTTCCCTCAGCCCGCCCCAAAGGACCACCCCTGGAGAACAATGCGAAACAAGTACGGTGGAGGAAACGCCATGACCCCTCATATCTCTGGTACTTCTATTGATGCCCAAGGCCGATACGCTGAGGGCACCAAGAAAATCCTTGAGGTCTTCTTCTCAGGAAAGCAAGACTACCGACCCCAGGATATCATCTGTATCAACGGTCACTACGGTACCAAGGCTTACGGTGACGACAAGGAGCACAAGGAGCACAAGGAGCACGAGGTCAAATAAGCTATCAGCTCTATAGTACTGTACAGTAGGTACAATAGGATCTTGATATTACAGT
modifications: YALI0B19976g

System: Y. lipolytica JMY2900
Experiment: qPCR of putative FDH gene transcription upon induction with sodium formate
Format: cell-based, Yarrowia lipolytica
Settings: YNB with 0.5% sodium formate, 6 h, 28° C., vs absence of formate; qPCR normalised to actin
Procedure: FIG. 3: Transcription levels of the FDH genes of Yarrowia lipolytica W29 measured by qPCR, normalised to actin (ACT1) expression. Yarrowia lipolytica was grown in YNB supplemented with 1% glucose and 0.5% yeast extract at 15 h at 28° C., before being washed and transferred into YNB with 0.5% of sodium formate for induction and grown for 6 h.
The inducibility of the putative FDH genes with formate was then tested by qPCR. YALI0E14256g1_1 and the nine putative FDH with the highest % identity to YALI0E14256g1_1 were selected for testing. Y. lipolytica JMY2900 was cultured in YNB media supplemented with 1% glucose and 0.5% yeast extract for 15 h at 28° C. Cells were washed with distilled water and cultured in fresh liquid YNB media supplemented with 0.5% sodium formate at 28° C. with agitation at 160 rpm, before being harvested at 6 h post-inoculated. Cells were frozen in liquid nitrogen and stored at −80° C. RNA was subsequently extracted using the RNeasy Mini Kit (Qiagen), and 2 μg was treated with DNAse (Ambion; Life Science Technologies, Saint-Aubain, France). cDNA was synthesised using the Maxima First Strand cDNA synthesis kit (Thermo Fischer Scientific, Villebon sur Yvette, France). qPCR was then performed using the SYBRgreen mastermix (Thermo Fischer Scientific) with gene-specific primers designed using Primer3 software. Relative expression levels were calculated using ΔCT and ΔΔCT methods. Expression levels were normalised to actin.

Molecule	Fold increase on induction (fold change expression of putative FDH genes upon induction with sodium formate) [fold]
B1	38.6
B2	5.7
B3	2.9
B4	11.4
